Experimental findings from US20240309062A1 are described below.

One assay has as its target T1, mouse IFNAR2 (mouse) (UniProt O35664).
T1 sequence: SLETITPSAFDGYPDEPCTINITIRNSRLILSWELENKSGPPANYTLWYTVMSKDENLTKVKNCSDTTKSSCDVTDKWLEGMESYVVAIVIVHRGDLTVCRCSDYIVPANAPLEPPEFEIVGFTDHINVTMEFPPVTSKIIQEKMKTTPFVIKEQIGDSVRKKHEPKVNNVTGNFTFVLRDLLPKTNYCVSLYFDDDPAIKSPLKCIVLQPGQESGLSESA
Briefly: AlphaSeq.
“IFNA2b_L49P_A168K (from UniProt P01563 24-188) (ligand)”: the apparent Kd (pooled screen) came to 461 nM.

Take “IFNA2b_L49P_A168Q (from UniProt P01563 24-188) (ligand)”: the apparent Kd (pooled screen) is 321 nM.

Take “IFNA2b_L49P_E164D (from UniProt P01563 24-188) (ligand)”: the apparent Kd (pooled screen) came to 75 nM.

Take “IFNA2b_L49P_K135I (from UniProt P01563 24-188) (ligand)”: the apparent Kd (pooled screen) worked out at 697 nM.

“IFNA2b_L49P_K156T (from UniProt P01563 24-188) (ligand)”: the apparent Kd (pooled screen) worked out at 65 nM.

On to “IFNA2b_L49P_K187L (from UniProt P01563 24-188) (ligand)”, for which the apparent Kd (pooled screen) is 85 nM.

For “IFNA2b_L49P_K187R (from UniProt P01563 24-188) (ligand)”, the apparent Kd (pooled screen) was found to be 415 nM.

Regarding “IFNA2b_L49P_K187Y (from UniProt P01563 24-188) (ligand)”, the apparent Kd (pooled screen) stood at 90 nM.

“IFNA2b_L49P_L176P (from UniProt P01563 24-188) (ligand)”: the apparent Kd (pooled screen) is 69 nM.

For the substance “IFNA2b_L49P_N179G (from UniProt P01563 24-188) (ligand)”, the apparent Kd (pooled screen) is 84 nM.

As for “IFNA2b_L49P_R167A (from UniProt P01563 24-188) (ligand)”, the apparent Kd (pooled screen) stood at 2200 nM.

Turning to “IFNA2b_L49P_R167H (from UniProt P01563 24-188) (ligand)”, the apparent Kd (pooled screen) was 480 nM.

Regarding “IFNA2b_L49P_R167K (from UniProt P01563 24-188) (ligand)”, the apparent Kd (pooled screen) is 77 nM.

As for “IFNA2b_L49P_R167M (from UniProt P01563 24-188) (ligand)”, the apparent Kd (pooled screen) came to 2380 nM.

As for “IFNA2b_L49P_R167S (from UniProt P01563 24-188) (ligand)”, the apparent Kd (pooled screen) was determined as 65800 nM.

Turning to “IFNA2b_L49P_R167W (from UniProt P01563 24-188) (ligand)”, the apparent Kd (pooled screen) came to 6440 nM.

In the case of “IFNA2b_L49P_R172A (from UniProt P01563 24-188) (ligand)”, the apparent Kd (pooled screen) amounted to 6870 nM.

On to “IFNA2b_L49P_R172E (from UniProt P01563 24-188) (ligand)”, for which the apparent Kd (pooled screen) came to 47300 nM.

As to “IFNA2b_L49P_R172G (from UniProt P01563 24-188) (ligand)”, the apparent Kd (pooled screen) came to 2260 nM.

Turning to “IFNA2b_L49P_R172I (from UniProt P01563 24-188) (ligand)”, the apparent Kd (pooled screen) came out at 310 nM.

With “IFNA2b_L49P_R172M (from UniProt P01563 24-188) (ligand)”, the apparent Kd (pooled screen) is 227 nM.

Turning to “IFNA2b_L49P_R172N (from UniProt P01563 24-188) (ligand)”, the apparent Kd (pooled screen) worked out at 18100 nM.

“IFNA2b_L49P_R172Q (from UniProt P01563 24-188) (ligand)”: the apparent Kd (pooled screen) came to 8550 nM.

With “IFNA2b_L49P_R172S (from UniProt P01563 24-188) (ligand)”, the apparent Kd (pooled screen) came out at 6190 nM.

Regarding “IFNA2b_L49P_R172V (from UniProt P01563 24-188) (ligand)”, the apparent Kd (pooled screen) was 566 nM.

“IFNA2b_L49P_R172W (from UniProt P01563 24-188) (ligand)”: the apparent Kd (pooled screen) stood at 9950 nM.

“IFNA2b_L49P_S159H (from UniProt P01563 24-188) (ligand)”: the apparent Kd (pooled screen) was 65 nM.

As for “IFNA2b_L49P_S183Y (from UniProt P01563 24-188) (ligand)”, the apparent Kd (pooled screen) worked out at 75 nM.

As to “IFNA2b_L49P_V165D (from UniProt P01563 24-188) (ligand)”, the apparent Kd (pooled screen) was found to be 26100 nM.

“IFNA2b_L49P_V165E (from UniProt P01563 24-188) (ligand)”: the apparent Kd (pooled screen) came to 16400 nM.

For “IFNA2b_L49P_V165F (from UniProt P01563 24-188) (ligand)”, the apparent Kd (pooled screen) was 22900 nM.

Turning to “IFNA2b_L49P_V165G (from UniProt P01563 24-188) (ligand)”, the apparent Kd (pooled screen) is 34400 nM.

As for “IFNA2b_L49P_V165Q (from UniProt P01563 24-188) (ligand)”, the apparent Kd (pooled screen) was 18600 nM.

In the case of “IFNA2b_L49P_V165R (from UniProt P01563 24-188) (ligand)”, the apparent Kd (pooled screen) was 8960 nM.

As to “IFNA2b_L49P_V165T (from UniProt P01563 24-188) (ligand)”, the apparent Kd (pooled screen) is 5950 nM.

Take “IFNA2b_M44N_A168H (from UniProt P01563 24-188) (ligand)”: the apparent Kd (pooled screen) worked out at 802 nM.

“IFNA2b_M44N_A168K (from UniProt P01563 24-188) (ligand)”: the apparent Kd (pooled screen) was determined as 23300 nM.

As for “IFNA2b_M44N_A168N (from UniProt P01563 24-188) (ligand)”, the apparent Kd (pooled screen) was 1500 nM.

Consider “IFNA2b_M44N_A168Q (from UniProt P01563 24-188) (ligand)”, for which the apparent Kd (pooled screen) came to 20000 nM.

With “IFNA2b_M44N_A168S (from UniProt P01563 24-188) (ligand)”, the apparent Kd (pooled screen) was determined as 545 nM.

Turning to “IFNA2b_M44N_E155R (from UniProt P01563 24-188) (ligand)”, the apparent Kd (pooled screen) came out at 7660 nM.

Consider “IFNA2b_M44N_G125Y (from UniProt P01563 24-188) (ligand)”, for which the apparent Kd (pooled screen) turned out to be 5820 nM.

For the substance “IFNA2b_M44N_K135G (from UniProt P01563 24-188) (ligand)”, the apparent Kd (pooled screen) was found to be 416 nM.

On to “IFNA2b_M44N_K156E (from UniProt P01563 24-188) (ligand)”, for which the apparent Kd (pooled screen) turned out to be 24400 nM.

Turning to “IFNA2b_M44N_K187E (from UniProt P01563 24-188) (ligand)”, the apparent Kd (pooled screen) worked out at 415 nM.

“IFNA2b_M44N_L176R (from UniProt P01563 24-188) (ligand)”: the apparent Kd (pooled screen) was 541 nM.

As for “IFNA2b_M44N_L184E (from UniProt P01563 24-188) (ligand)”, the apparent Kd (pooled screen) was determined as 811 nM.

As to “IFNA2b_M44N_R167A (from UniProt P01563 24-188) (ligand)”, the apparent Kd (pooled screen) is 5780 nM.

Take “IFNA2b_M44N_R167I (from UniProt P01563 24-188) (ligand)”: the apparent Kd (pooled screen) came to 4900 nM.

Take “IFNA2b_M44N_R167L (from UniProt P01563 24-188) (ligand)”: the apparent Kd (pooled screen) came to 2260 nM.

As for “IFNA2b_M44N_R167T (from UniProt P01563 24-188) (ligand)”, the apparent Kd (pooled screen) stood at 7010 nM.

Regarding “IFNA2b_M44N_R172W (from UniProt P01563 24-188) (ligand)”, the apparent Kd (pooled screen) is 8770 nM.

With “IFNA2b_M44N_S138W (from UniProt P01563 24-188) (ligand)”, the apparent Kd (pooled screen) was found to be 942 nM.

Turning to “IFNA2b_M44N_S159D (from UniProt P01563 24-188) (ligand)”, the apparent Kd (pooled screen) came out at 34500 nM.

Consider “IFNA2b_M44N_S175E (from UniProt P01563 24-188) (ligand)”, for which the apparent Kd (pooled screen) was found to be 484 nM.

For the substance “IFNA2b_M44N_S177D (from UniProt P01563 24-188) (ligand)”, the apparent Kd (pooled screen) was found to be 12300 nM.

Take “IFNA2b_M44N_T150G (from UniProt P01563 24-188) (ligand)”: the apparent Kd (pooled screen) was found to be 528 nM.

In another assay the target is T1, mouse IFNAR2 (mouse). Briefly: AlphaSeq, replicates.
Turning to “IFNA2_L49P (from UniProt P01563 24-188) (ligand)”, the apparent Kd (pooled screen) amounted to 20 nM.

Another assay concerns the target T1, mouse IFNAR2 (mouse). Briefly: AlphaSeq (yeast mating, Aga2 display).
“IFNA2b_L49P_A168D (from UniProt P01563 24-188) (ligand)”: the apparent Kd (pooled screen) came to 586 nM.

For “IFNA2b_L49P_K156Q (from UniProt P01563 24-188) (ligand)”, the apparent Kd (pooled screen) stood at 73 nM.

With “IFNA2b_L49P_L140N (from UniProt P01563 24-188) (ligand)”, the apparent Kd (pooled screen) came to 480 nM.

Consider “IFNA2b_L49P_R167I (from UniProt P01563 24-188) (ligand)”, for which the apparent Kd (pooled screen) worked out at 708 nM.

For the substance “IFNA2b_L49P_R167L (from UniProt P01563 24-188) (ligand)”, the apparent Kd (pooled screen) is 1950 nM.

“IFNA2b_L49P_R167T (from UniProt P01563 24-188) (ligand)”: the apparent Kd (pooled screen) was found to be 3000 nM.

With “IFNA2b_L49P_R167V (from UniProt P01563 24-188) (ligand)”, the apparent Kd (pooled screen) was 1740 nM.

As for “IFNA2b_M44N_A120T (from UniProt P01563 24-188) (ligand)”, the apparent Kd (pooled screen) amounted to 591 nM.

In the case of “IFNA2b_M44N_E130M (from UniProt P01563 24-188) (ligand)”, the apparent Kd (pooled screen) was determined as 825 nM.

With “IFNA2b_M44N_E188R (from UniProt P01563 24-187) (ligand)”, the apparent Kd (pooled screen) was found to be 520 nM.

For “IFNA2b_M44N_V128G (from UniProt P01563 24-188) (ligand)”, the apparent Kd (pooled screen) turned out to be 472 nM.
